In patent publication US20160271142A1 (CELLERANT THERAPEUTICS, published 2016):

Legend:
[1] = molecular target: T1, C type Lectin Like molecule 1 (CLL-1), on human cell lines (human, UniProt Q5QGZ9 1-265); experiment: cell-based or functional assay
T1 sequence (looked up): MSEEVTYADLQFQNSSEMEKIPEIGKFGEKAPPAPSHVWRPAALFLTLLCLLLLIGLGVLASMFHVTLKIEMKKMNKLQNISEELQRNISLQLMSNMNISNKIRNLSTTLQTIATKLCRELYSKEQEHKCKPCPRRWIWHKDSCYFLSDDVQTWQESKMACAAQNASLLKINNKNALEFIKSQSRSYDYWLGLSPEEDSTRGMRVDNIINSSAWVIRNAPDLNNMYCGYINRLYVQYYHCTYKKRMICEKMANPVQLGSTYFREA

[2] = molecular target: T1, C type Lectin Like molecule 1 (CLL-1), …; experiment: cell-based or functional assay; remark: listed apart in the source
[3] = molecular target: T1, C type Lectin Like molecule 1 (CLL-1), …; experiment: cell-based or functional assay; remark: listed apart in the source
[4] = molecular target: T1, C type Lectin Like molecule 1 (CLL-1), …; experiment: mean fluorescent intensity of ADC binding to HEL92.1.7-CLL1 cells, relative to control C0-CLT-D202 ADC
[5] = molecular target: T1, C type Lectin Like molecule 1 (CLL-1), …; experiment: mean fluorescent intensity of ADC binding to AML5 cells (express CLL-1), relative to control C0-CLT-D202 ADC
[6] = molecular target: T1, C type Lectin Like molecule 1 (CLL-1), …; experiment: mean fluorescent intensity of ADC binding to HL-60 cells (express CLL-1), relative to control C0-CLT-D202 ADC
[7] = molecular target: T1, C type Lectin Like molecule 1 (CLL-1), …; experiment: mean fluorescent intensity of ADC binding to 293 cells, relative to control C0-CLT-D202 ADC; CLL-1 status of this line not stated
[8] = molecular target: T1, C type Lectin Like molecule 1 (CLL-1), …; experiment: mean fluorescent intensity of ADC binding to AML2 cells, relative to control C0-CLT-D202 ADC; CLL-1 status of this line not stated
[9] = molecular target: T1, C type Lectin Like molecule 1 (CLL-1), …; experiment: mean fluorescent intensity of ADC binding to PL21 cells, relative to control C0-CLT-D202 ADC; CLL-1 status of this line not stated
[10] = molecular target: T1, C type Lectin Like molecule 1 (CLL-1), …; experiment: mean fluorescent intensity of ADC binding to U937 cells, relative to control C0-CLT-D202 ADC; CLL-1 status of this line not stated
[11] = molecular target: T1, C type Lectin Like molecule 1 (CLL-1), …; experiment: mean fluorescent intensity of ADC binding to EOL-1 cells, relative to control C0-CLT-D202 ADC; CLL-1 status of this line not stated
[12] = molecular target: T1, C type Lectin Like molecule 1 (CLL-1), …; experiment: mean fluorescent intensity of ADC binding to KG-1a cells, relative to control C0-CLT-D202 ADC; CLL-1 status of this line not stated
[13] = molecular target: T1, C type Lectin Like molecule 1 (CLL-1), …; experiment: mean fluorescent intensity of ADC binding to SHI-1 cells, relative to control C0-CLT-D202 ADC; CLL-1 status of this line not stated
[14] = molecular target: T1, C type Lectin Like molecule 1 (CLL-1), …; experiment: mean fluorescent intensity of ADC binding to HNT-34 cells, relative to control C0-CLT-D202 ADC; CLL-1 status of this line not stated
[15] = molecular target: T1, C type Lectin Like molecule 1 (CLL-1), …; experiment: mean fluorescent intensity of ADC binding to parental HEL92.1.7 cells, relative to control C0-CLT-D202 ADC; CLL-1 status of this line not stated

B1: C6-CLT-D202 ADC (humanized anti-CLL1 antibody C6-S239C-CYSMAB, cys-substituted at position 239, conjugated to CLT-D202) (antibody, V domains shown)
VH: EVQLVQSGAEVKKPGASVKMSCKASGYTFTSYFIHWVRQAPGQGLEWIGFINPYNDGSKYAQKFQGRATLTSDKSTSTVYMELSSLRSEDTAVYYCTRDDGYYGYAMDYWGQGTLVTVSS
VL: DIQMTQSPSSLSASVGDRVTLTCRATQELSGYLSWLQQKPGKAIKRLIYAASTLDSGVPSRFSGNRAGTDYTLTISSLQPEDFATYYCLQYAIYPYTFGQGTKLEIK
modifications: CLT-D202 (maleimide linker-drug) on the engineered cysteine at position 239 (S239C) of the heavy chain constant region; drug to antibody ratio 1.7
B1 was tested, and the “IC50, killing of proliferating AML-5 cells” value [1] was 0.03 µg/mL, the “IC50, killing of quiescent AML-5 cells” value [1] was 0.02 µg/mL and the “decrease in IC50 of cell killing, TF1-CLL1 against TF1” value [1] was about 1000 fold. The “target dependent cell killing, HL-60 cells, relative to control C0-CLT-D202 ADC” value [1] was over 500 fold, the “IC50 ug/mL, cell killing, TF1-CLL1 cells” value [2] was 0.008 µg/mL and the “IC50 ng/mL, cell killing, AML5 cells” value [3] was 13 ng/mL. For the same binder, the “IC50 ng/mL, cell killing, HEL92.1.7-CLL1 cells” value [3] was 17 ng/mL, the “IC50 ng/mL, cell killing, HL-60 cells” value [3] was 11 ng/mL and the “C6 relative MFI C6/C0” value [4] was 26.1 ratio. The “C6 relative MFI C6/C0” value [5] was 15 ratio, the “C6 relative MFI C6/C0” value [6] was 20 ratio and the “C6 relative MFI C6/C0” value [7] was 1.2 ratio. The “C6 relative MFI C6/C0” value [8] was 13 ratio, the “C6 relative MFI C6/C0” value [9] was 14.7 ratio and the “C6 relative MFI C6/C0” value [10] was 14.7 ratio. For the same binder, the “C6 relative MFI C6/C0” value [11] was 20.5 ratio, the “C6 relative MFI C6/C0” value [12] was 1.3 ratio and the “C6 relative MFI C6/C0” value [13] was 1.4 ratio. The “C6 relative MFI C6/C0” value [14] was 5.8 ratio and the “C6 relative MFI C6/C0” value [15] was 1.3 ratio.
